Laboratory results: the supplement of paper PMC10567573
± gives the standard deviation.

Assay: protein stability index of a GFP-peptide fusion (GPS, HEK-293T) (PSI 1-6); higher = more stable
[1] = treatment: DMSO, c terminus: a fixed tail appended
[2] = treatment: MLN4924 1 uM, 8 h, c terminus: a fixed tail appended
[3] = treatment: DMSO, c terminus: native
[4] = treatment: MLN4924 1 uM, 8 h, c terminus: native
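Further: 24-mer peptide tiles fused after GFP, lentivirally expressed, FACS-sorted into six equal bins by GFP/DsRed ratio, decoded by Illumina sequencing, PSI is the read-weighted mean bin number.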

| Sequence | protein stability index [1] | protein stability index [2] | protein stability index [3] | protein stability index [4] |
| --- | --- | --- | --- | --- |
| KKAAESLRRSVEKYNSARADFEQK [FCHO1] | 4.2 ± 0.18 | 4.43 ± 0.29 | – | – |
| GTPSPSRSRDSNSGPEEPLLEEEE [RTN2] | 5.49 ± 0.24 | 5.72 ± 0.27 | – | – |
| KAILDAEPGPRPALQPSPSIRLPL [TBC1D10A] | 4.27 ± 0.15 | 4.34 ± 0.059 | – | – |
| TPLLNGSSQDRMFETMAIEIEQLL [GOSR1] | 3.06 ± 0.27 | 3.28 ± 0.23 | – | – |
| KKSNSPGTASSGSSRLPQPSGAGK [ZC2HC1A] | 5.25 ± 0.19 | 5.23 ± 0.14 | – | – |
| AAARIRAQVPDTRWSRVGGQRFYS | 2.713 ± 0.004 | 3 ± 0.61 | – | – |
| RPSFNRTPIPWLSSGEPVDYNVDI [MYOZ1] | 3.57 ± 0.5 | 3.66 ± 0.39 | – | – |
| KSMAWCENSICVGFKRDYYLIRVD [VPS39] | 3 ± 1.3 | 2.39 ± 0.89 | – | – |
| RPHVHKQTEKTTRVRTVLNEKQLH [ISL2] | 4.21 ± 0.098 | 4.39 ± 0.24 | – | – |
| NRGNSAGGLQHRVTAKTAPDVLRT [PTPRD] | 3.98 ± 0.47 | 3.81 ± 0.31 | – | – |
| DLKNVKSKIGSTDNIKYQPKGGQV [MAP2] | 3.24 ± 0.16 | 3.54 ± 0.32 | – | – |
| KVQELMSTHELEKKELEENFEKLR [MTUS2] | 4.97 ± 0.54 | 5.14 ± 0.23 | – | – |
| QPRDEEEAELELLRQFDLAWQYGP [POLD4] | 4.87 ± 0.34 | 4.54 ± 0.27 | – | – |
| GDDFELLDQSELSQLDPASSRSH [RETREG3] | – | – | 4.75 ± 0.29 | 4.85 ± 0.4 |
| PVENIPEIILYWKHSTIFDVGENL [SLC25A25] | 2.37 ± 0.41 | 2.02 ± 0.44 | – | – |
| GLGLPMSRSQNTDMVQKSVSKTLP [CLINT1] | 4.33 ± 0.23 | 4.44 ± 0.099 | – | – |
| GQLEFRALLFIPRRAPFDLFENKK [HSP90AB1] | 2.22 ± 0.22 | – | – | – |
| LFDFDLEVKPVLEVLVGKTIEQSL [RSPH3] | 2.48 ± 0.42 | 2.42 ± 0.039 | – | – |
| EYRQKHGVPPLKLCKNLNREAQQY [GLIPR2] | 3.42 ± 0.16 | 3.4 ± 0.28 | – | – |
| LDHLSLGEEPVPHQQVEEALSFTL [NEK8] | 4.1 ± 0.35 | 4 ± 0.29 | – | – |
| TNDGNHPSCQETRDYAPPSRGYAY [RBMY1A1] | 4.33 ± 0.12 | 4.36 ± 0.11 | – | – |
| RAYDLLRAASENSQDALRVVSTSG [IKZF1] | 2.62 ± 0.37 | 2.84 ± 0.31 | – | – |
| IPPSSDRTPEILKKALSGLSSRWK [CDS1] | 2.39 ± 0.49 | 2.29 ± 0.46 | – | – |

| Sequence | protein stability index [1] | protein stability index [2] | protein stability index [3] | protein stability index [4] |
| --- | --- | --- | --- | --- |
| GLANSSRVRGRVGTIRPVRCPSSS [C22orf15] | 4.12 ± 0.14 | 4.23 ± 0.21 | – | – |
| GVSFQAISSMADFWDFAQGPLLDS [PKD2L1] | 2.4 ± 0.29 | 2.87 ± 0.32 | – | – |
| MHLNAEGMLSYCDRYSEGIKHVLQ [CRYL1] | 2.4 ± 0.29 | 2.32 ± 0.42 | – | – |
| HPRGWNDHVHILDTETFTWSQPIT [KLHDC2] | 2.42 ± 0.29 | 2.71 ± 0.54 | – | – |
| LWIKFFAAGELESMGFSARYNFTP [NETO1] | 2.63 ± 0.85 | 2.58 ± 0.89 | – | – |
| FLVLQSLLERQVEMTPEKFSVLME [FANCE] | 2.13 ± 0.39 | 2.11 ± 0.3 | – | – |
| LNLTRKLAQQLCTALLFLATPELS [DYRK1B] | 2.9 ± 0.51 | 3.21 ± 0.47 | – | – |
| GKETLTPSELRDLVTQQLPHLMPS [S100A14] | 3.94 ± 0.65 | 3.99 ± 0.12 | – | – |
| DEDFTFGAYQPTVVSSEGRQSRRQ [FBF1] | 4.77 ± 0.24 | 4.89 ± 0.3 | – | – |
| KGLSVEFALLADKAAQQGKQEEND [SNX8] | 5.237 ± 0.033 | 5.13 ± 0.21 | – | – |
| EPNNIVVLLQTSPYHVDSLLQLSD [TCF25] | 2.44 ± 0.3 | 2.11 ± 0.26 | – | – |
| EISLEDLIERERSALGPNVTKITL [ZC3H15] | 2.77 ± 0.3 | 2.96 ± 0.48 | – | – |
| VLRGRLYAIAGYDGNSLLSSIECY [KLHL12] | 1.91 ± 0.14 | 2.28 ± 0.13 | – | – |
| AHWQCGATLTQVSVEYGYRPGATA [FCHO1] | 2.29 ± 0.18 | 2.24 ± 0.49 | – | – |
| SNYSLPPPLPTYHVLLEGEGLGQS [TRIM29] | 3.67 ± 0.23 | 3.68 ± 0.22 | – | – |
| CTDFCLRNLDGTLGYLLDKETLRL [ZER1] | 2 ± 0.23 | 2.13 ± 0.17 | – | – |
| FCNISLFEDLPLQEPQSPQKLNPG [PLAGL1] | 3 ± 0.2 | 3.21 ± 0.25 | – | – |
| VFVCRVSAVLFYVNMYVSIVFFGL [P2RY14] | 3.36 ± 0.33 | 3.35 ± 0.54 | – | – |
| KAREKDGKGRTASPINSPARGTPS [FSD1] | 4.92 ± 0.11 | 5.19 ± 0.27 | – | – |
| VCRTEGTPHMLLDLSDLLQVDSLR [BRF1] | 2.31 ± 0.23 | 2.29 ± 0.3 | – | – |
| LCLNTEDSFVCQCSEGFLINEDLK [MATN2] | 3.03 ± 0.28 | 3.38 ± 0.28 | – | – |
| RIRSYLREVSSYPSTVGAEAQEEF [DFFB] | 3.33 ± 0.16 | 3.58 ± 0.29 | – | – |
| TPKAAWIREEGRCSSSDDDTDVDM [PBXIP1] | 5.4 ± 0.32 | 5.19 ± 0.38 | – | – |

| Sequence | protein stability index [1] | protein stability index [2] | protein stability index [3] | protein stability index [4] |
| --- | --- | --- | --- | --- |
| GPGEPDVRDGFSATFEKILESELL [PSD2] | 3.91 ± 0.25 | 4.03 ± 0.34 | – | – |
| EHKLKVVRDQISHCTVKLRQTTGL [TRIM9] | 3.35 ± 0.13 | 3.24 ± 0.25 | – | – |
| IPAFCELPLDDQVALLRAHAGEHL [HNF4A] | 2.88 ± 0.26 | 3.22 ± 0.33 | – | – |
| GGGGVAAVVVLDQGSRHWQKLREE [DUSP5] | 2.96 ± 0.26 | 2.65 ± 0.3 | – | – |
| AKGDNVYEFHLEFLDLVKPEPVYK [HACD3] | 2.41 ± 0.09 | 2.54 ± 0.49 | – | – |
| YKFDPKTKRILTLQKANSWFNCRK [MMP1] | 2.67 ± 0.27 | 2.54 ± 0.28 | – | – |
| KGCSLEQISMELAKVNYVKNNICF [SLC2A12] | 2.22 ± 0.35 | 2.27 ± 0.28 | – | – |
| QINDGMGGDGDDMEIFMEEMREIR [BEX3] | 4.81 ± 0.17 | 4.75 ± 0.28 | – | – |
| DDDDDDAQILPSRVQGGCYRFDSS [DRICH1] | 4.65 ± 0.095 | 4.88 ± 0.15 | – | – |
| KLKVQALKDRGLSIPRADTLDEY [LSM1] | – | – | 4.01 ± 0.2 | 4.04 ± 0.33 |
| SMLPPVNFSIVPYEKKFDTFIPLE [SPATS1] | 2.6 ± 0.26 | 2.49 ± 0.1 | – | – |
| KTPEEAYRALLSGSNPPYLPFRDA [CDC14A] | 3.27 ± 0.3 | 3.31 ± 0.25 | – | – |
| GGGGGGGGTSSNNSEEEEDDDDEE [ANKRD17] | 5.68 ± 0.21 | 5.55 ± 0.34 | – | – |
| LRATVERMGLMKANHVFFLLYLLH [FADS1] | 2.35 ± 0.37 | 2 ± 0.18 | – | – |
| APQHPAASALRTRMTGGRPPLPPP [DYRK1B] | 4.38 ± 0.15 | 4.41 ± 0.23 | – | – |
| SRLMRRHKRRRRKQKVSRIERSSS [DVL3] | 4.46 ± 0.27 | 4.43 ± 0.09 | – | – |
| PHRVLETRGHAISILFGFWTSFIC [SMIM2] | 2.46 ± 0.41 | 2.32 ± 0.18 | – | – |
| DAATTDELSSLGSDSEANGFAERR [TBC1D10A] | 5.47 ± 0.34 | 5.42 ± 0.23 | – | – |
| HRPSTLQAASTPQAEEDWTCTIL [OAS1] | – | – | 4.18 ± 0.17 | 4.45 ± 0.14 |
| RAEGTDIPTVKPLKPRPEPPKKPS [ZC2HC1A] | 5.38 ± 0.18 | 5.4 ± 0.27 | – | – |
| GFSSIPDAFWWAVVTMTTVGYGDM [KCNA3] | 3.06 ± 0.47 | 3.25 ± 0.27 | – | – |
| KQRGYFFLDERLYCESHAKARVKP [PDLIM4] | 2.81 ± 0.64 | 3.11 ± 0.38 | – | – |
| GEEAVTLVEDMQRELGRLRQQVTN [ZNF263] | 4.1 ± 0.14 | 4.02 ± 0.29 | – | – |

| Sequence | protein stability index [1] | protein stability index [2] | protein stability index [3] | protein stability index [4] |
| --- | --- | --- | --- | --- |
| TNPDLYPVRRIDGLTDVSQIITVT [IQUB] | 2.86 ± 0.26 | 3.06 ± 0.26 | – | – |
| NDPSQSEVMGEPHLMVEYKLGLL [POMP] | – | – | 4.16 ± 0.22 | 4.36 ± 0.21 |
| FSASERLSLKRELSWYRGRRPRTA [HESX1] | 2.7 ± 0.28 | 3.22 ± 0.32 | – | – |
| SLCKVFGAHKDCQVAPLTHVFQRQ [TRIM55] | 2.41 ± 0.35 | 2.66 ± 0.2 | – | – |
| LRRTMQELEIELQSQLSMKAGLEN [KRT15] | 2.86 ± 0.22 | 3.13 ± 0.38 | – | – |
| DTHNTNNLDTEELCEYFSQHLGEY [NECAB1] | 4.41 ± 0.36 | 4.17 ± 0.33 | – | – |
| YIHFFHTVLKQIAPEYFEKNEPYL [DENND6A] | 1.96 ± 0.5 | 2.77 ± 0.53 | – | – |
| ELNHGRQGENQEHLVIAEMMELGS [FATE1] | 4.3 ± 0.29 | 4.27 ± 0.36 | – | – |
| AEIATASASASTTTTVTAVTAEVD [SNAP91] | 5.62 ± 0.23 | 5.47 ± 0.39 | – | – |
| HSPFSSESRALSTSSNLGSQYQCE [TBX5] | 4.4 ± 0.35 | 4.53 ± 0.22 | – | – |
| LICFCRESRYMDQWVPVINLPER [GADD45A] | – | – | 2.98 ± 1.1 | 2.87 ± 0.84 |
| LTKAATSGVGIDGEVLSYLELAQF [RHOBTB1] | 2.44 ± 0.18 | 2.47 ± 0.43 | – | – |
| ECVASNNVGEISVSTRLTVLREDQ [PTPRD] | 4.63 ± 0.19 | 4.54 ± 0.15 | – | – |
| AACSSKRSPIIDVKNDRDRVGHKS [SERPINB5] | 4.85 ± 0.35 | 4.77 ± 0.11 | – | – |
| VQLATLAQRVKEVLPHVPLGVIQR [AUP1] | 2.51 ± 0.16 | 2.19 ± 0.29 | – | – |
| KGTEKQTTSETQKSVQCGTWTKHA [NETO1] | 4.84 ± 0.26 | 4.82 ± 0.13 | – | – |
| TYRSLLESEDCKLPSNPCATTNAC [KRT33B] | 3.99 ± 0.26 | 4.04 ± 0.072 | – | – |
| SIGIDNLGLKLEENLQETHSAVL [SLC35F2] | – | – | 4.34 ± 0.31 | 4.53 ± 0.19 |
| HCMAPPLLHLDLKPANILLDAHYH [RIPK4] | 2.27 ± 0.23 | 2.38 ± 0.22 | – | – |
| RFLVGMMNGGMSLVAFVLLNECVG [SLC22A15] | 3.25 ± 0.35 | 2.9 ± 0.38 | – | – |
